Data taken from PMC5732302 (2017).

Molecular target: dynein (Saccharomyces cerevisiae, UniProt P36022)
Sequence (P36022 whole entry): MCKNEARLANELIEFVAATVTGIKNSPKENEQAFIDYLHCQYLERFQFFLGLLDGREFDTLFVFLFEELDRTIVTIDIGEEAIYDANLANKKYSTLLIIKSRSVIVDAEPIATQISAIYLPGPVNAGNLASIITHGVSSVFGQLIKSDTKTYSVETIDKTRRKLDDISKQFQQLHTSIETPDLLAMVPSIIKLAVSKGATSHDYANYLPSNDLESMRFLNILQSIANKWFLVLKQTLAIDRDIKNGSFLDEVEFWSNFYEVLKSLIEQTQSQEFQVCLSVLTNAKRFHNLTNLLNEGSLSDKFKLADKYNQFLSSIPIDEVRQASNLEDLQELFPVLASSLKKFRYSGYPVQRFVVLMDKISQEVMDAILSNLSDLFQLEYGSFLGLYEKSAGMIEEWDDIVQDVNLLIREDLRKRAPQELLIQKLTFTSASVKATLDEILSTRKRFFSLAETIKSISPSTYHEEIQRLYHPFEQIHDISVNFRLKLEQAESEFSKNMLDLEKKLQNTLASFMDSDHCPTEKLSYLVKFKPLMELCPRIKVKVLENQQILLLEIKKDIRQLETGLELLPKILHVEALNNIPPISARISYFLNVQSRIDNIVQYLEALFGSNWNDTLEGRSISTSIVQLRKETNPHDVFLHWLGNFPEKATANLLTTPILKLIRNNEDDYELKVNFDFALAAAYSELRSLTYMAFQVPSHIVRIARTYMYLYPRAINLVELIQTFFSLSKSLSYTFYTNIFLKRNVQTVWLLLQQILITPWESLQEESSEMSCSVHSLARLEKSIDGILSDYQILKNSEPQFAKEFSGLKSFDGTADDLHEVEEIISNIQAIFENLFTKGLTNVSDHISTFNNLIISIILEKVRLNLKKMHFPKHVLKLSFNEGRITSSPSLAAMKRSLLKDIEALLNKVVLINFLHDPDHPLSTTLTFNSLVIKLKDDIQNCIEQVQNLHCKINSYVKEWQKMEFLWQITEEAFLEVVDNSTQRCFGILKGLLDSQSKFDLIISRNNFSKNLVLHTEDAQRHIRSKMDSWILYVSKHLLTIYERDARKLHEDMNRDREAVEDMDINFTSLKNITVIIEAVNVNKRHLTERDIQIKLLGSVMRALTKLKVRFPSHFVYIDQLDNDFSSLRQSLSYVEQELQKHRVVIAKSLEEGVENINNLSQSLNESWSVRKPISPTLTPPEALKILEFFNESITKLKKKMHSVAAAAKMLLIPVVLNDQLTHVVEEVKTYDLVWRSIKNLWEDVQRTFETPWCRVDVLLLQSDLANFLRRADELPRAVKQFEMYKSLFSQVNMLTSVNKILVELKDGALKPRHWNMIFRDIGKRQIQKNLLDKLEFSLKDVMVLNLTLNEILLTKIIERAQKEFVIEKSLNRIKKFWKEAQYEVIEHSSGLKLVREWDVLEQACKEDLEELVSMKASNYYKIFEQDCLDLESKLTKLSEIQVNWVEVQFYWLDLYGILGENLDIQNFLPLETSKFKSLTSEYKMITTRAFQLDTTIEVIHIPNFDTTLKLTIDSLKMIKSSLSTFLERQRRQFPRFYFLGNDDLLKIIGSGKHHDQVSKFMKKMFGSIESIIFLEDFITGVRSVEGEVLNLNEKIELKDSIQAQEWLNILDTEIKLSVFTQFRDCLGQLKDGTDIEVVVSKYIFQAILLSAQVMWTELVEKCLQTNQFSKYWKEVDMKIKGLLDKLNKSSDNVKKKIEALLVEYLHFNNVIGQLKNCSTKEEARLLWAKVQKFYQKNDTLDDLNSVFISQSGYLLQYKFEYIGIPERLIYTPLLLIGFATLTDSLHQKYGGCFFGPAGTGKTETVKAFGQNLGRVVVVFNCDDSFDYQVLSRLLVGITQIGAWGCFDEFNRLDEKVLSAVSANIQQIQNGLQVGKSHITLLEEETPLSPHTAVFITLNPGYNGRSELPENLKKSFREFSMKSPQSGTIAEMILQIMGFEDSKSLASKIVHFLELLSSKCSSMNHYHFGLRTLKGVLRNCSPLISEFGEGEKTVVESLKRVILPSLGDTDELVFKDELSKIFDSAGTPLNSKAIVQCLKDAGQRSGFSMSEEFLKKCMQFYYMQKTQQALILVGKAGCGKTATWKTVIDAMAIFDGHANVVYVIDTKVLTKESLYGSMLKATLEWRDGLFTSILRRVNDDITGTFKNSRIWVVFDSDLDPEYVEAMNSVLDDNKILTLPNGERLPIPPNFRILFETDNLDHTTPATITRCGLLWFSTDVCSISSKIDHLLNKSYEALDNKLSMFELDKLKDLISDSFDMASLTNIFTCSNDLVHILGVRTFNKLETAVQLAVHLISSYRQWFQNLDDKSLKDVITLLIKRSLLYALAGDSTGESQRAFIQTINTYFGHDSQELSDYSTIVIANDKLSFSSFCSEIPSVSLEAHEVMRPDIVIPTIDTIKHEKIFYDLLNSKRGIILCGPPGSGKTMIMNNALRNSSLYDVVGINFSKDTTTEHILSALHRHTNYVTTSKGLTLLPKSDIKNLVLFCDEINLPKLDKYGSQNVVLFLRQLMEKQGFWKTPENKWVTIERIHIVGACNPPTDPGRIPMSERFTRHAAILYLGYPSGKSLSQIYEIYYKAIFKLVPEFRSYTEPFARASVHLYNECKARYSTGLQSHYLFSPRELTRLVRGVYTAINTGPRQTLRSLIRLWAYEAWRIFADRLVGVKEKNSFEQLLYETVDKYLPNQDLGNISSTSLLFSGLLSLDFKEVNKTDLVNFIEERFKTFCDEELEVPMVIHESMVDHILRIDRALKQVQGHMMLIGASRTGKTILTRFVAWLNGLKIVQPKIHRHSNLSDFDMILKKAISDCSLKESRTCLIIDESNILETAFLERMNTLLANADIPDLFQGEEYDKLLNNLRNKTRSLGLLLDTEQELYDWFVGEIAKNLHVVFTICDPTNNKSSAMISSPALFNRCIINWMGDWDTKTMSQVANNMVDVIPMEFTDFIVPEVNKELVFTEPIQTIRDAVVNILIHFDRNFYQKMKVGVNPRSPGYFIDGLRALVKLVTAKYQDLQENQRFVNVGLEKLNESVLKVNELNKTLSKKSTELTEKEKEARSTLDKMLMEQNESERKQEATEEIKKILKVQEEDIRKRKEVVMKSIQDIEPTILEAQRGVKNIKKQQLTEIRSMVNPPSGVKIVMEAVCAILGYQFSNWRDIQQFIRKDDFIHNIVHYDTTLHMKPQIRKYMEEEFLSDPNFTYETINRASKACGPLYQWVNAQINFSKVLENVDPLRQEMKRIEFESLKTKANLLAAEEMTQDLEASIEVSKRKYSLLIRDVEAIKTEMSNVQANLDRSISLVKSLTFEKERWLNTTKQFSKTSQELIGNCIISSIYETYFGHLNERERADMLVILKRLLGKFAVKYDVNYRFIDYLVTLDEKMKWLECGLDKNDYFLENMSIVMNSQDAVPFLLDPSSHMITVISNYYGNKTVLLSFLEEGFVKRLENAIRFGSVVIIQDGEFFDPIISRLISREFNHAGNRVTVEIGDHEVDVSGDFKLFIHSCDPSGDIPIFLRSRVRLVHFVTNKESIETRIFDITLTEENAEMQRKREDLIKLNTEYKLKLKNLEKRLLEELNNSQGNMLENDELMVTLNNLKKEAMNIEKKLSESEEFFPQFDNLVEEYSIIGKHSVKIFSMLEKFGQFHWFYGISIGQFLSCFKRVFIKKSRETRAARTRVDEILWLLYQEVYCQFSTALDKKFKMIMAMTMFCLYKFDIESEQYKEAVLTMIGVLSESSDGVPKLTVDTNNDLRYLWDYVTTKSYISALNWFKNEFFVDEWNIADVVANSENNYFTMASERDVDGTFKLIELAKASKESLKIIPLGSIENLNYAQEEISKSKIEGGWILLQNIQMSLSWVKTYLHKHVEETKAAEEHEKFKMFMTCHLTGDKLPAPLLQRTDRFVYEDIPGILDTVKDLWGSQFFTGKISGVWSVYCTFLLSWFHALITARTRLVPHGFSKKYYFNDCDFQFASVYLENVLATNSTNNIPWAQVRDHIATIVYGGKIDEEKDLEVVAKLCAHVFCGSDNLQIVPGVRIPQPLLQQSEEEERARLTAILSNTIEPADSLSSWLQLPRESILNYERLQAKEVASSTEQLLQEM

Kd: < 0.2 nM
B1: She1 (protein)
chain: MNDKLQEEHNEKDTTSQINGFTPPHMSIDFHSNNNSNIIETIGVSKRLGNSVLSELDSRASSKFEFLKDQSEQQYNGDKNNEPKSGSYNINEFFQAKHDSQFGQMESLDTHYTLLHTPKRKSQHAIPQDRSDSMKRSRPSRSIPYTTPVVNDITRRIRRLKLRNSLVNGNDIVARARSMQANSNINSIKNTPLSKPKPFMHKPNFLMPTTNSLNKINSAHRNTSSSSTASSIPRSKVHRSISIRDLHAKTKPVERTPVAQGTNSQLKNSVSVFDRLYKQTTFSRSTSMNNLSSGTSAKSKEHTNVKTRLVKSKTSGSLSSNLKQSTATGTKSDRPIWR
